Consider one substance from doi:10.1101/2021.03.03.433707.

The assay concerns the target MukB, full length, wild type (E. coli) (UniProt P22523). The assay can be described thus: fluorescence correlation spectroscopy.

MukB, full length, wild type (E. coli), sequence (P22523 whole entry): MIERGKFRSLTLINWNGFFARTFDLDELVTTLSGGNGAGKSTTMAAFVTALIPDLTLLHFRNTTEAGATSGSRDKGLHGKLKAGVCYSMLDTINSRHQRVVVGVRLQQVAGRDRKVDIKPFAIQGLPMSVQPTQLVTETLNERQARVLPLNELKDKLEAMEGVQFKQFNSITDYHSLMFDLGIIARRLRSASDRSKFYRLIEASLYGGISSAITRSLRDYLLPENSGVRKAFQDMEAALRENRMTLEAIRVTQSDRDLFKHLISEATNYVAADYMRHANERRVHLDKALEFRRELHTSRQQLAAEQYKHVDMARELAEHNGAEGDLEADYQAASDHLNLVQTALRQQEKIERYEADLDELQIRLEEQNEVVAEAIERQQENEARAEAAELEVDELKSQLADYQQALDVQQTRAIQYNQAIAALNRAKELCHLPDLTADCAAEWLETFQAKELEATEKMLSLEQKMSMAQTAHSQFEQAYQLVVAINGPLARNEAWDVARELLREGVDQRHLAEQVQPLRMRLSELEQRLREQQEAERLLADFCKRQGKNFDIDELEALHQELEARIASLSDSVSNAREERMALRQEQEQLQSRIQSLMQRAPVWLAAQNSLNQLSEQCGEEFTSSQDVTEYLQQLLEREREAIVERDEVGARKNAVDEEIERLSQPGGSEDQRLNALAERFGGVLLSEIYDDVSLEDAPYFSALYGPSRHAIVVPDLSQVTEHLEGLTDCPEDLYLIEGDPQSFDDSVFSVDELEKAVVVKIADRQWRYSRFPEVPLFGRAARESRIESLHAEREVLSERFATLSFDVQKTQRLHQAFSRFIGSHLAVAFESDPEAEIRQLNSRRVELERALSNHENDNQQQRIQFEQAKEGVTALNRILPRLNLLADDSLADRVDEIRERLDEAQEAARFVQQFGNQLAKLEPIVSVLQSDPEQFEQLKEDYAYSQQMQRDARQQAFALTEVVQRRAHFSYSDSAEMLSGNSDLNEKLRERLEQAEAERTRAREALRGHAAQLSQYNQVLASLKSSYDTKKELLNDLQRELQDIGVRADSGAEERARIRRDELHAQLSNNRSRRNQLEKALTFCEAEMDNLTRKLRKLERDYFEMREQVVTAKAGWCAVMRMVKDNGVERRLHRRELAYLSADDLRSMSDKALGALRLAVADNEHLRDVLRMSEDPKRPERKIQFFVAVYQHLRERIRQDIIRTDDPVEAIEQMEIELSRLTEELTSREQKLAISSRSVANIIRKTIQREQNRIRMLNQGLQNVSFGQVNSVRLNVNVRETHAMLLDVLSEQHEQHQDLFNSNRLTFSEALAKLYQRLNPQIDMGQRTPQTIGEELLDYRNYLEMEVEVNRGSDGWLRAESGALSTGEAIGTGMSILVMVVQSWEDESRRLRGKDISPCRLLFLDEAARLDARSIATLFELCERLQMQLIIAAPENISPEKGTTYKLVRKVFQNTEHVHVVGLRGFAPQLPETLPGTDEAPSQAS
MBP-ParC^CTD (ParC C-terminal domain with N-terminal MBP fusion) (domain or fragment), sequence (P0AFI2 whole entry, the tested form may be a part): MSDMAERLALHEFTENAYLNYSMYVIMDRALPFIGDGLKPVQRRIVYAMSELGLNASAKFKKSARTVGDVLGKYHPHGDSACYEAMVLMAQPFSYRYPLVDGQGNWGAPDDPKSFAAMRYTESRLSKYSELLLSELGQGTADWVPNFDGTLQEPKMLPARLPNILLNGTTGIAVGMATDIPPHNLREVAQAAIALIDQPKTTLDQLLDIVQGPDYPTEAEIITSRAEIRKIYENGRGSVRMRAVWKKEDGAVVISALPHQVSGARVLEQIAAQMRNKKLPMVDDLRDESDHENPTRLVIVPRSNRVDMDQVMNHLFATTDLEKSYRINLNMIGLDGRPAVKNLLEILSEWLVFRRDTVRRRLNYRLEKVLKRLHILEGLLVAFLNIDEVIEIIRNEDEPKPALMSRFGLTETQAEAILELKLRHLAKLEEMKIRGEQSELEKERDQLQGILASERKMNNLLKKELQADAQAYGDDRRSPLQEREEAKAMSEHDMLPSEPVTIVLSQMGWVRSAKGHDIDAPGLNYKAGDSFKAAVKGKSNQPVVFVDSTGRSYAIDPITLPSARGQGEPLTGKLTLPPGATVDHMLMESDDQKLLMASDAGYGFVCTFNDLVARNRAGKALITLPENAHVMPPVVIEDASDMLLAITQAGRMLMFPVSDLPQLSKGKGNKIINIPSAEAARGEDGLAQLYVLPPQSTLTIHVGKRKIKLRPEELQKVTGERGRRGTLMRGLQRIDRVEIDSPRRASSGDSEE

With “MBP-ParC^CTD (ParC C-terminal domain with N-terminal MBP fusion) (domain or fragment)”, the fold decrease in MatP-Cy3B binding to MukB at a 10-fold excess of competitor was determined as 3 fold.
